Measurements from paper PMC3326337.

Key:
[1] = target: T1, His-CRP (cAMP receptor protein) (Escherichia coli, UniProt P0ACJ8 1-210); assay: DRaCALA
[2] = target: Maltose binding protein (MBP) (UniProt P0AEX9 27-396); assay: DRaCALA
[3] = target: T1, His-CRP (cAMP receptor protein); assay: EMSA
[4] = target: T1, His-CRP (cAMP receptor protein); assay: DRaCALA; remark: listed apart in the source

T1 sequence (P0ACJ8 whole entry): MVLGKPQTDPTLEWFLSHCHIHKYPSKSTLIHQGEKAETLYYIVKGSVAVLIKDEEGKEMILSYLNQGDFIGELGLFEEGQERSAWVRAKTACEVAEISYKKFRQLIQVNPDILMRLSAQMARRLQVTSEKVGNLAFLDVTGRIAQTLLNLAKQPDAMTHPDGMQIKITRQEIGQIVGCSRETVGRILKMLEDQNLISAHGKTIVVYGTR

Row | Binder | binding result [1] | binding result [2] | Kd [3] | Kd [4]
1 | ICAP 8,10:G-C (gd132/gd133) (dsDNA) DNA 1: AGGAGGAATAAATCTCATCTAGATGAGATTTTAGAGGAGG DNA 2: CCTCCTCTAAAATCTCATCTAGATGAGATTTATTCCTCCT | no binding |  |  | 
2 | ICAP 40-bp (gd126/gd127) (dsDNA) DNA 1: AGGAGGAATAAATGTGATCTAGATCACATTTTAGAGGAGG DNA 2: CCTCCTCTAAAATGTGATCTAGATCACATTTATTCCTCCT | binds | no binding |  | 
3 | ICAP 10:G-C (gd130/gd131) (dsDNA) DNA 1: AGGAGGAATAAATGTCATCTAGATGACATTTTAGAGGAGG DNA 2: CCTCCTCTAAAATGTCATCTAGATGACATTTATTCCTCCT | no binding |  |  | 
4 | ICAP oligo (vl1427/vl1428) (dsDNA) DNA 1: GCAACGCAATAAATGTGATCTAGATCACATTTTAGGCACCC DNA 2: GGGGTGCCTAAAATGTGATCTAGATCACATTTATTGCGTTG |  |  | 81 pM | 36 pM
